This test has as its target T1, Escherichia coli HSP70 family member DnaK (Escherichia coli, UniProt P0A6Y8).
T1 construct: purchased Stressgen (Ann Arbor, Mich., USA) SPP-630
The test can be described thus: ELISA: binding of DnaK to immobilized (misfolded) protein ligands. On the procedure:
Recombinant Escherichia coli (E. coli) DnaK was purchased from Stressgen (Ann Arbor, Mich., USA; SPP-630). For the binding studies first lot B502468 (100 μg, lot A) and then lot 05240609 (200 μg, lot B) was used.
Binding of chaperones to immobilized (misfolded) protein ligands was determined using an enzyme linked immuno sorbent assay (ELISA) approach. For this purpose 50 μl/well of potential ligands at indicated concentrations or coat buffer only for control and background measurement purposes, were coated overnight at 4° C. or coated for 1 h at room temperature, with motion, in 50 mM NaHCO3 pH 9.6 (coat buffer). In general, ligands were coated at 5 μg/ml, unless stated otherwise. For example, BiP binding peptides 6BB# and oxLDL were coated at 50 μg/ml. Native haemoglobin (Sigma-Aldrich, H7379), albumin, IgIV Gammagard and ovalbumin controls were prepared from lyophilized stocks. The controls were prepared by dissolving lyophilized proteins at 1 mg/ml in PBS upon resuspending by pipetting, followed by a 30 minutes period at the roller device, at room temperature. The protein solutions were centrifuged for 10 minutes at 16,000*g and diluted in coat buffer. After coating the plates were washed at least three times with 50 mM Tris-HCl pH 7.3, 150 mM NaCl, 0.1% v/v Tween20, and blocked with Blocking reagent (Roche Diagnostics, Almere, The Netherlands; 11112589001), for 1 h at room temperature, with motion. Plates were washed three times and incubated in triplicate with indicated chaperone dilution series, at 50 μl/well, for 1 h at room temperature, with constant motion. For HSP90, 5 mM DTT is incorporated in the binding buffer (PBS/0.1% Tween20) to avoid unwanted disulfide bond formation of the HSP90. Plates were washed three times and incubated with anti-FLAG antibody (mouse antibody, M2, peroxidase conjugate; Sigma, A-8592) for BiP-FLAG-His, anti-His-tag antibody (Mouse Monoclonal Antibody, Cat. No. 70796, Novagen [0.2 mg/ml]) for HSP60, a 1:1 mix of 500-fold diluted anti-HSP90beta antibodies (Stressgen, SPA-643 [mouse monoclonal IgM], SPA-646 [rabbit polyclonal]) for HSP90 and an anti-DnaK antibody (Stressgen, 023SPA-880D [mouse monoclonal antibody]) for DnaK. After four wash cycles, secondary antibodies were added to the wells when required, 50 μl/well, for 45′ at room temperature, with motion. RAMPO and SWARPO were used at 3000 times dilution. […] In a second experiment with more immobilized misfolded proteins and controls, the detection of bound HSP90 with the mix of two anti-HSP90 antibodies was achieved by mixing 1:1500 SWARPO with 1:3000 RAMPO. After 5 washes with wash buffer followed by two washes with PBS, binding of antibodies was assessed. Bound anti-FLAG-PO, peroxidase-conjugated rabbit anti-mouse immunoglobulins (RAMPO, P0260, DAKOCytomation, Glostrup, Denmark) or peroxidase-coupled swine anti-rabbit immunoglobulins (SWARPO, P0217, DAKOCytomation) was visualized with tetramethylbenzidine (TMB, #45.01.20,/#45.014.01, Biosource, Nivelles, Belgium). The reaction was stopped after 5 minutes with 1% H2SO4 in H2O. Plates were read at 450 nm. Triplicates were averaged and standard deviations calculated. Background signals obtained with buffer-coated wells were subtracted (binding of primary antibody to empty wells), as well as background signals obtained with ligand-coated wells in which the chaperones were omitted (binding of primary and secondary antibody to coated ligands). Subsequently, sub-optimal concentrations of chaperones for binding to misfolded protein ligands are determined, and these concentrations are used for inhibition studies. […] We have previously identified that a sub-fraction of IgIV molecules has affinity for misfolded proteins comprising crossbeta structure (pending patent application). Moreover, we identified that the sub-fraction of IgIV molecules directly binds to crossbeta structure and/or crossbeta structure induced conformation (not shown; pending patent application). […]

T1 sequence (P0A6Y8 whole entry): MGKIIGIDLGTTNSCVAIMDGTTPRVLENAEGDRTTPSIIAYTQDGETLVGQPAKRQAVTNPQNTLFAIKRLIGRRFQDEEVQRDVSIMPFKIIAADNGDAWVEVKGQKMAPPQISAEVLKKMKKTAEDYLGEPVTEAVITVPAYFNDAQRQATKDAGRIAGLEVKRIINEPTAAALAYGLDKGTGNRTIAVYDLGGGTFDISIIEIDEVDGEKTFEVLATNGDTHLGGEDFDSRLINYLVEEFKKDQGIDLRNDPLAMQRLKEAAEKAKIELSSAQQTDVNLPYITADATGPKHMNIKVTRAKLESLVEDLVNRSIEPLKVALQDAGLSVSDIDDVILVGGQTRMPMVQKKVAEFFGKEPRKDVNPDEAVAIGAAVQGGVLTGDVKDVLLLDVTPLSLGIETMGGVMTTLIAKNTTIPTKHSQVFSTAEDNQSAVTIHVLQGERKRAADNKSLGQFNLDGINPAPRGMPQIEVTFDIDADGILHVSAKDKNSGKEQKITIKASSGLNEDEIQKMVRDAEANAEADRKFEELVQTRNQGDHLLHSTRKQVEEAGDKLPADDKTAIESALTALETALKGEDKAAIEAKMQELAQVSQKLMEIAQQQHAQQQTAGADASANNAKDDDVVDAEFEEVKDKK

In the case of AGEYYAAL [6BB7], the “Binding of concentration series of DnaK to coated ligand” value (from here on “Binding of concentration series of DnaK”) is on record as “No binding”. Then BSA-AGE, with “has been established”. As for GSNKGAIIGLM [6BB6, Human Aβ (25-35)], the “Binding of concentration series of DnaK” value was “has been established”. Then “Hb: non-modified human haemoglobin control”, with “Low binding”; and “HbAGE: human haemoglobin glycated with glucose-6-phosphate for 75 weeks”, with “has been established”. Turning to KLVFFAE [6BB12, Human Aβ16-22], the “Binding of concentration series of DnaK” value is given as “did not bind”. On to “native BSA: non-modified bovine serum albumin control”, for which the “Binding of concentration series of DnaK” value is listed as “No binding”.

Source of the values: US20100015126A1, “Methods of Binding of Cross-Beta Structures By Chaperones” (priority 2006, published 2010).
